Assay results reported in the supplement of paper PMC5998384.

Experiments:
HeLa Kyoto [1] = experiment: solubility in G1/S (NP-40 vs SDS abundance) (log2 ratio); higher = more soluble; conditions: cell cycle stage: G1/S
HeLa Kyoto [2] = experiment: melting temperature (median over replicates), in situ; higher = more thermally stable
HeLa Kyoto [3] = experiment: solubility change mitosis vs G1/S (difference of NP-40 vs SDS log2 ratios) (log2 ratio difference); higher = more soluble in mitosis
HeLa Kyoto [4] = experiment: thermal stability score vs G1/S (z-score of summed log2 fold changes over temperatures); higher = more thermally stable than in G1/S
[5] = cell cycle stage: early G1 (4.5 h after nocodazole release)
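For melting temperature (median over replicates), in situ in this document: HeLa Kyoto cells synchronized by double thymidine or nocodazole block, proteins quantified by TMT10plex mass spectrometry, three independent biological replicates.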
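For solubility change mitosis vs G1/S (difference of NP-40 vs SDS log2 ratios) in this document: synchronized HeLa Kyoto cells (double thymidine block for G1/S, nocodazole release for mitosis), protein amounts in NP-40 versus SDS lysates quantified by mass spectrometry, three biological replicates.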
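For solubility in G1/S (NP-40 vs SDS abundance) in this document: HeLa Kyoto cells arrested at G1/S by double thymidine block, proteins quantified by TMT10plex mass spectrometry in mild NP-40 versus SDS extracts, three biological replicates.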
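For thermal stability score vs G1/S (z-score of summed log2 fold changes over temperatures) in this document: synchronized HeLa Kyoto cells, proteins quantified by TMT10plex mass spectrometry, three biological replicates, mitosis taken 0.5 h after nocodazole release, G1/S directly after double thymidine block.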

Row | Sequence | solubility in G1/S (log2) (HeLa Kyoto [1]) | melting temperature (HeLa Kyoto [2]; cell cycle stage: G1/S) | melting temperature (HeLa Kyoto [2]; cell cycle stage: mitosis) | solubility change mitosis (log2) (HeLa Kyoto [3]) | thermal stability score (HeLa Kyoto [4]; [5]) | thermal stability score (HeLa Kyoto [4]; cell cycle stage: mitosis)
1 | MLPSLQESMDGDEKELESSEEGGSAEERRLEPPSSSHYCLYSYRGSRLAQQRGDSEDGSPSGTNAETPSGDDFSLSLADTNLPSEVEPELRSFIAKRLSRGAVFEGLGNVASVELKIPGYRVGCYYCLFQNEKLLPETVTIDSERNPSEYVVCFLGGSEKGLELFRLELDKYIQGLKNNMNCEARGLESHIKSYLSSWFEDVVCPIQRVVLLFQEKLTFLLHAALSYTPVEVKESDEKTKRDINRFLSVASLQGLIHEGTMTSLCMAMTEEQHKSVVIDCSSSQPQFCNAGSNRFCEDWMQAFLNGAKGGNPFLFRQVLENFKLKAIQDTNNLKRFIRQAEMNHYALFKCYMFLKNCGSGDILLKIVKVEHEEMPEAKNVIAVLEEFMKEALDQSF [C17ORF75] | 0.283 | 51.5 °C | 51.7 °C | -0.159 | -0.255 | -0.352
2 | MLPYTVNFKVSARTLTGALNAHNKAAVDWGWQGLIAYGCHSLVVVIDSITAQTLQVLEKHKADVVKVKWARENYHHNIGSPYCLRLASADVNGKIIVWDVAAGVAQCEIQEHAKPIQDVQWLWNQDASRDLLLAIHPPNYIVLWNADTGTKLWKKSYADNILSFSFDPFDPSHLTLLTSEGIVFISDFSPSKPPSGPGKKVYISSPHSSPAHNKLATATGAKKALNKVKILITQEKPSAEFITLNDCLQLAYLPSKRNHMLLLYPREILILDLEVNQTVGVIAIERTGVPFLQVIPCFQRDGLFCLHENGCITLRVRRSYNNIFTTSNEEPDPDPVQELTYDLRSQCDAIRVTKTVRPFSMVCCPVNENAAALVVSDGRVMIWELKSAVCNRNSRNSSSGVSPLYSPVSFCGIPVGVLQNKLPDLSLDNMIGQSAIAGEEHPRGSILREVHLKFLLTGLLSGLPAPQFAIRMCPPLTTKNIKMYQPLLAVGTSNGSVLVYHLTSGLLHKELSIHSCEVKGIEWTSLTSFLSFATSTPNNMGLVRNELQLVDLPTGRSIAFRGERGNDESAIEMIKVSHLKQYLAVVFRDKPLELWDVRTCTLLREMSKNFPTITALEWSPSHNLKSLRKKQLATREAMARQTVVSDTELSIVESSVISLLQEAESKSELSQNISAREHFVFTDIDGQVYHLTVEGNSVKDSARIPPDGSMGSITCIAWKGDTLVLGDMDGNLNFWDLKGRVSRGIPTHRSWVRKIRFAPGKGNQKLIAMYNDGAEVWDTKEVQMVSSLRSGRNVTFRILDVDWCTSDKVILASDDGCIRVLEMSMKSACFRMDEQELTEPVWCPYLLVPRASLALKAFLLHQPWNGQYSLDISHVDYPENEEIKNLLQEQLNSLSNDIKKLLLDPEFTLLQRCLLVSRLYGDESELHFWTVAAHYLHSLSQEKSASTTAPKEAAPRDKLSNPLDICYDVLCENAYFQKFQLERVNLQEVKRSTYDHTRKCTDQLLLLGQTDRAVQLLLETSADNQHYYCDSLKACLVTTVTSSGPSQSTIKLVATNMIANGKLAEGVQLLCLIDKAADACRYLQTYGEWNRAAWLAKVRLNPEECADVLRRWVDHLCSPQVNQKSKALLVLLSLGCFFSVAETLHSMRYFDRAALFVEACLKYGAFEVTEDTEKLITAIYADYARSLKNLGFKQGAVLFASKAGAAGKDLLNELESPKEEPIEE [WDR11] | -0.123 | 52.8 °C | 53.4 °C | -0.106 | 1.39 | 0.377
3 | MLRAGWLRGAAALALLLAARVVAAFEPITVGLAIGAASAITGYLSYNDIYCRFAECCREERPLNASALKLDLEEKLFGQHLATEVIFKALTGFRNNKNPKKPLTLSLHGWAGTGKNFVSQIVAENLHPKGLKSNFVHLFVSTLHFPHEQKIKLYQDQLQKWIRGNVSACANSVFIFDEMDKLHPGIIDAIKPFLDYYEQVDGVSYRKAIFIFLSNAGGDLITKTALDFWRAGRKREDIQLKDLEPVLSVGVFNNKHSGLWHSGLIDKNLIDYFIPFLPLEYRHVKMCVRAEMRARGSAIDEDIVTRVAEEMTFFPRDEKIYSDKGCKTVQSRLDFH [TOR1B] | 0.349 | 53.7 °C | 53.9 °C | -0.143 | 2.27 | 5.78
4 | MLRMRTAGWARGWCLGCCLLLPLSLSLAAAKQLLRYRLAEEGPADVRIGNVASDLGIVTGSGEVTFSLESGSEYLKIDNLTGELSTSERRIDREKLPQCQMIFDENECFLDFEVSVIGPSQSWVDLFEGQVIVLDINDNTPTFPSPVLTLTVEENRPVGTLYLLPTATDRDFGRNGIERYELLQEPGGGGSGGESRRAGAADSAPYPGGGGNGASGGGSGGSKRRLDASEGGGGTNPGGRSSVFELQVADTPDGEKQPQLIVKGALDREQRDSYELTLRVRDGGDPPRSSQAILRVLITDVNDNSPRFEKSVYEADLAENSAPGTPILQLRAADLDVGVNGQIEYVFGAATESVRRLLRLDETSGWLSVLHRIDREEVNQLRFTVMARDRGQPPKTDKATVVLNIKDENDNVPSIEIRKIGRIPLKDGVANVAEDVLVDTPIALVQVSDRDQGENGVVTCTVVGDVPFQLKPASDTEGDQNKKKYFLHTSTPLDYEATREFNVVIVAVDSGSPSLSSNNSLIVKVGDTNDNPPMFGQSVVEVYFPENNIPGERVATVLATDADSGKNAEIAYSLDSSVMGIFAIDPDSGDILVNTVLDREQTDRYEFKVNAKDKGIPVLQGSTTVIVQVADKNDNDPKFMQDVFTFYVKENLQPNSPVGMVTVMDADKGRNAEMSLYIEENNNIFSIENDTGTIYSTMSFDREHQTTYTFRVKAVDGGDPPRSATATVSLFVMDENDNAPTVTLPKNISYTLLPPSSNVRTVVATVLATDSDDGINADLNYSIVGGNPFKLFEIDPTSGVVSLVGKLTQKHYGLHRLVVQVNDSGQPSQSTTTLVHVFVNESVSNATAIDSQIARSLHIPLTQDIAGDPSYEISKQRLSIVIGVVAGIMTVILIILIVVMARYCRSKNKNGYEAGKKDHEDFFTPQQHDKSKKPKKDKKNKKSKQPLYSSIVTVEASKPNGQRYDSVNEKLSDSPSMGRYRSVNGGPGSPDLARHYKSSSPLPTVQLHPQSPTAGKKHQAVQDLPPANTFVGAGDNISIGSDHCSEYSCQTNNKYSKQMRLHPYITVFG [PCDH7] | 0.215 | 55.1 °C | 53.4 °C | -0.075 | -1.64 | -1.07
5 | MLRPAGLWRLCRRPWAARVPAENLGRREVTSGVSPRGSTSPRTLNIFDRDLKRKQKNWAARQPEPTKFDYLKEEVGSRIADRVYDIPRNFPLALDLGCGRGYIAQYLNKETIGKFFQADIAENALKNSSETEIPTVSVLADEEFLPFKENTFDLVVSSLSLHWVNDLPRALEQIHYILKPDGVFIGAMFGGDTLYELRCSLQLAETEREGGFSPHISPFTAVNDLGHLLGRAGFNTLTVDTDEIQVNYPGMFELMEDLQGMGESNCAWNRKALLHRDTMLAAAAVYREMYRNEDGSVPATYQIYYMIGWKYHESQARPAERGSATVSFGELGKINNLMPPGKKSQ [NDUFAF5] | 0.329 | 53.5 °C | 53.4 °C | -0.0552 | 0.357 | 0.191
6 | MLRRGSQALRRFSTGRVYFKNKLKLALIGQSLFGQEVYSHLRKEGHRVVGVFTVPDKDGKADPLALAAEKDGTPVFKLPKWRVKGKTIKEVAEAYRSVGAELNVLPFCTQFIPMDIIDSPKHGSIIYHPSILPRHRGASAINWTLIMGDKKAGFSVFWADDGLDTGPILLQRSCDVEPNDTVDALYNRFLFPEGIKAMVEAVQLIADGKAPRIPQPEEGATYEGIQKKENAEISWDQSAEVLHNWIRGHDKVPGAWTEINGQMVTFYGSTLLNSSVPPGEPLEIKGAKKPGLVTKNGLVLFGNDGKALTVRNLQFEDGKMIPASQYFSTGETSVVELTAEEVKVAETIKVIWAGILSNVPIIEDSTDFFKSGASSMDVARLVEEIRQKCGGLQLQNEDVYMATKFEGFIQKVVRKLRGEDQEVELVVDYISKEVNEIMVKMPYQCFINGQFTDADDGKTYDTINPTDGSTICKVSYASLADVDKAVAAAKDAFENGEWGRMNARERGRLMYRLADLLEENQEELATIEALDSGAVYTLALKTHIGMSVQTFRYFAGWCDKIQGSTIPINQARPNRNLTFTKKEPLGVCAIIIPWNYPLMMLAWKSAACLAAGNTLVLKPAQVTPLTALKFAELSVKAGFPKGVINIIPGSGGIAGQRLSEHPDIRKLGFTGSTPIGKQIMKSCAVSNLKKVSLELGGKSPLIIFNDCELDKAVRMGMGAVFFNKGENCIAAGRLFVEESIHDEFVTRVVEEIKKMKIGDPLDRSTDHGPQNHKAHLEKLLQYCETGVKEGATLVYGGRQVQRPGFFMEPTVFTDVEDYMYLAKEESFGPIMVISKFQNGDIDGVLQRANSTEYGLASGVFTRDINKAMYVSEKLEAGTVFINTYNKTDVAAPFGGVKQSGFGKDLGEEALNEYLKTKTVTLEY [ALDH1L2] | 0.0306 | 51.6 °C | 51.2 °C | -0.105 | -0.0085 | -0.149
7 | MLRSGPASGPSVPTGRAMPSRRVARPPAAPELGALGSPDLSSLSLAVSRSTDELEIIDEYIKENGFGLDGGQPGPGEGLPRLVSRGAASLSTVTLGPVAPPATPPPWGCPLGRLVSPAPGPGPQPHLVITEQPKQRGMRFRYECEGRSAGSILGESSTEASKTLPAIELRDCGGLREVEVTACLVWKDWPHRVHPHSLVGKDCTDGICRVRLRPHVSPRHSFNNLGIQCVRKKEIEAAIERKIQLGIDPYNAGSLKNHQEVDMNVVRICFQASYRDQQGQMRRMDPVLSEPVYDKKSTNTSELRICRINKESGPCTGGEELYLLCDKVQKEDISVVFSRASWEGRADFSQADVHRQIAIVFKTPPYEDLEIVEPVTVNVFLQRLTDGVCSEPLPFTYLPRDHDSYGVDKKRKRGMPDVLGELNSSDPHGIESKRRKKKPAILDHFLPNHGSGPFLPPSALLPDPDFFSGTVSLPGLEPPGGPDLLDDGFAYDPTAPTLFTMLDLLPPAPPHASAVVCSGGAGAVVGETPGPEPLTLDSYQAPGPGDGGTASLVGSNMFPNHYREAAFGGGLLSPGPEAT [RELB] | -0.0253 |  | 50.1 °C | -0.12 | 0.0562 | 0.606
